Data reported in paper PMC3887213.

What was measured:
Experiment in all cases: two-hybrid; quantitative YTH (Q-YTH): chlorophenol-red-β-D-galactopyranoside colour change at 540 nm, background (bait + empty pACT2) subtracted, normalised to wild-type RocCOR = 100%
[1] = target: LRRK2 RocCOR tandem domain R1441C (LexA-BD bait) (human) (UniProt Q5S007)
[2] = target: LRRK2 RocCOR tandem domain R1441G (LexA-BD bait) (human) (UniProt Q5S007)
[3] = target: LRRK2 RocCOR tandem domain R1441H (LexA-BD bait) (human) (UniProt Q5S007)
Chain of LRRK2 RocCOR tandem domain R1441H (LexA-BD bait) (human) (Q5S007 whole entry R1441H, the tested form may be a part): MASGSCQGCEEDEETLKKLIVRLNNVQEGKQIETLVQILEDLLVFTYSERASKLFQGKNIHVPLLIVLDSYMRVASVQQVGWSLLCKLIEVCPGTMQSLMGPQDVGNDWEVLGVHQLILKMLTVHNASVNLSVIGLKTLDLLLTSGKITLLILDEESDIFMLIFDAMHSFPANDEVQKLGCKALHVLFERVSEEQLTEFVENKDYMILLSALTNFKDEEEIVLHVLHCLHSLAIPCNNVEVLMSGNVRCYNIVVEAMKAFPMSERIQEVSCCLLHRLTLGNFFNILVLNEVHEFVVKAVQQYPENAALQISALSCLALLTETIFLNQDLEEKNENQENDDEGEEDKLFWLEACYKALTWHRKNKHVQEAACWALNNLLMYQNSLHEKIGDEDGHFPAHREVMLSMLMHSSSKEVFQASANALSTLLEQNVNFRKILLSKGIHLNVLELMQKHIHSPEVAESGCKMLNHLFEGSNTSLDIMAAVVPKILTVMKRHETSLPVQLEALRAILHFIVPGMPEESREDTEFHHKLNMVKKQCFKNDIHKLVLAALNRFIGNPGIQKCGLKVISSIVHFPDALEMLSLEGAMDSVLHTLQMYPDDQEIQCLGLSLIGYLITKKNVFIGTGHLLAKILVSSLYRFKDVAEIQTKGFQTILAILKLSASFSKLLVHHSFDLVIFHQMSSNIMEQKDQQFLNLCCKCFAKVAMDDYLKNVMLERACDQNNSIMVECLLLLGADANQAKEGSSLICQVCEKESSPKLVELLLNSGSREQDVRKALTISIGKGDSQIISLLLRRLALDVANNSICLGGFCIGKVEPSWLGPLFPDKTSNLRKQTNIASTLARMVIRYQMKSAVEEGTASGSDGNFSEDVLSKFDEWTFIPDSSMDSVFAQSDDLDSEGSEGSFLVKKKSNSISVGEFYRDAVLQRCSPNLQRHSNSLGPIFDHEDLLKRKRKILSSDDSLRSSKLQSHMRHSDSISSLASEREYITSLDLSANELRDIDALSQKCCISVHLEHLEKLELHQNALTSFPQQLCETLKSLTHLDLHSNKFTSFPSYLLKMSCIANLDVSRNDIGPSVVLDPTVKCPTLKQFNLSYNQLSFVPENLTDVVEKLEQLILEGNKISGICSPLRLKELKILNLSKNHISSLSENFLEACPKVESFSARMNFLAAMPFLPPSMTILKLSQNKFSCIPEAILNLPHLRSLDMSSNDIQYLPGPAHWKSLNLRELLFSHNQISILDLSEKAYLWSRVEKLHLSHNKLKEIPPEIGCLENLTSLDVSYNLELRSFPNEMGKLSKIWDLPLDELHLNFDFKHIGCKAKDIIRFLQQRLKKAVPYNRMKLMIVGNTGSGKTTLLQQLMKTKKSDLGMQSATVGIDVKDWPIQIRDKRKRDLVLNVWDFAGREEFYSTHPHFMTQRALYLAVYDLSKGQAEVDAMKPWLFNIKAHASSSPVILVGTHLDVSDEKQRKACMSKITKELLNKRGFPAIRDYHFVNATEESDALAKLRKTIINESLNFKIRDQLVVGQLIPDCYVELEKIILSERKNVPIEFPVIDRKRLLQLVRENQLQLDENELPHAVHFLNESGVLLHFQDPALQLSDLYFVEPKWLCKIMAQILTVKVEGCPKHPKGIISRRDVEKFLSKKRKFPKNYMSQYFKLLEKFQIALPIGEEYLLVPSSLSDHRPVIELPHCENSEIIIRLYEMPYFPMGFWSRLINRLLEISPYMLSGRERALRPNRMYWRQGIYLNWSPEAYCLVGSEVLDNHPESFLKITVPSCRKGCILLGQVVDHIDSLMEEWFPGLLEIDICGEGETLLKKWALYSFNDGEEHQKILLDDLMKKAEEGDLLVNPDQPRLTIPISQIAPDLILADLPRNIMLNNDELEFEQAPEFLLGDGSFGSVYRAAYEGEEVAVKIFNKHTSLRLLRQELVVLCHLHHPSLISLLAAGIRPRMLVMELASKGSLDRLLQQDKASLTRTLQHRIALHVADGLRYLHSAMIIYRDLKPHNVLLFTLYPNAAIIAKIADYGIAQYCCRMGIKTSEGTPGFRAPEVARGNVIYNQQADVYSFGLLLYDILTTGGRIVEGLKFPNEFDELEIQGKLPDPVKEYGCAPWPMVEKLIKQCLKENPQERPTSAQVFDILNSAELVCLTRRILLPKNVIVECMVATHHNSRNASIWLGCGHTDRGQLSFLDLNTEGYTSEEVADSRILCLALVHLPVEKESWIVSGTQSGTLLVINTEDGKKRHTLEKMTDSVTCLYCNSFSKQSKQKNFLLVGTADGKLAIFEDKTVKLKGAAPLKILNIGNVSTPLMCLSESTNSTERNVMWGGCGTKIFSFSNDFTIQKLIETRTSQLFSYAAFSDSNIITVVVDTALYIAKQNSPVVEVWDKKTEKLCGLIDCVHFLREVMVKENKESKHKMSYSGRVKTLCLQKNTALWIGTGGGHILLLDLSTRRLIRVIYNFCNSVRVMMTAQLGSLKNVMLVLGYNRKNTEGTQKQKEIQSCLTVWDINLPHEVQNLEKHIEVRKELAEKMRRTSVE

Chain of TUBB4 C terminus (Phe-317 to Ala-444), GAL4-AD prey (P04350 317-444): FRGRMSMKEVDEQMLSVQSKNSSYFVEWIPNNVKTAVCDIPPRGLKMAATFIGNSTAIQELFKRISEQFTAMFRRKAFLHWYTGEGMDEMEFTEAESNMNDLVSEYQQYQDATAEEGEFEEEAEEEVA
Chain of TUBB C terminus (Phe-317 to the stop codon), GAL4-AD prey (P07437 317-444): as the sequence (P04350 317-444) above, with S16N, S19N, A49V, G117E, F119D, E120F, E121G, A123E, E124A, V127E counted along it
Chain of LRRK2 RocCOR tandem domain R1441G (LexA-BD bait) (human) (Q5S007 whole entry R1441G, the tested form may be a part): as the sequence (Q5S007 whole entry R1441H, the tested form may be a part) above, with H1441G counted along it
Chain of LRRK2 RocCOR tandem domain R1441C (LexA-BD bait) (human) (Q5S007 whole entry R1441C, the tested form may be a part): as the sequence (Q5S007 whole entry R1441H, the tested form may be a part) above, with H1441C counted along it

Substance | percent increase of the interaction against wild-type RocCOR (Q-YTH) [1] | percent reduction of the interaction against wild-type RocCOR (Q-YTH) [2] | percent reduction of the interaction against wild-type RocCOR (Q-YTH) [3]
TUBB4 C terminus (Phe-317 to Ala-444), GAL4-AD prey (from UniProt P04350 317-444) (domain or fragment) | 25% | 50% | 25%
TUBB C terminus (Phe-317 to the stop codon), GAL4-AD prey (from UniProt P07437 317-444) (domain or fragment) | 25% | 50% | 25%
